Assay [1] concerns the target Antp-hTBP heterodimer (VCAntp-VNTBP, Venus reconstituted by BiFC) (Drosophila | human) (UniProt P02833).
Assay [2] concerns the target hTBPQ80, hTBP with an extension of 80 glutamine residues (amino acids 50-142), fused to the N-terminal fragment of Venus (human) (UniProt P20226). In words: split reporter (BiFC, NanoBiT); BiFC in HEK293 cells co-transfected with VC- and VN- constructs and pCAG-mCherry; read 48 h after transfection; interaction percent = green cells per 100 red cells.

Sequence of hTBPQ80, hTBP with an extension of 80 glutamine residues (amino acids 50-142), fused to the N-terminal fragment of Venus (human) (P20226 whole entry, the tested form may be a part): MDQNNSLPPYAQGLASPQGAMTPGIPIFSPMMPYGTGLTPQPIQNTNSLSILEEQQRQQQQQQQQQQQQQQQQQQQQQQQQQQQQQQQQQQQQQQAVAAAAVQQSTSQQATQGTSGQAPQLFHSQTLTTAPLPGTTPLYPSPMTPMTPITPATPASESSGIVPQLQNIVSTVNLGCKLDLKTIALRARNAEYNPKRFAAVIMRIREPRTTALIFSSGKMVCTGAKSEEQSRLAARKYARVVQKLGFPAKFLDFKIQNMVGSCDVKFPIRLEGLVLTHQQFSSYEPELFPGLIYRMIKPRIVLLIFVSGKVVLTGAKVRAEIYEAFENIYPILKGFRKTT
Sequence of AntpΔN, Antp lacking the N-terminal region (amino acids 1-269), fused to the C-terminal fragment of Venus (P02833 270-378, stated change not applied): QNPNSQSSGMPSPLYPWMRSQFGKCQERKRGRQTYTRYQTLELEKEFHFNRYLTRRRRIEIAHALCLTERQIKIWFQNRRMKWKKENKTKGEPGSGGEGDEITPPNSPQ
Sequence of Antennapedia (Antp), fused to the C-terminal fragment of Venus (P02833 whole entry, the tested form may be a part): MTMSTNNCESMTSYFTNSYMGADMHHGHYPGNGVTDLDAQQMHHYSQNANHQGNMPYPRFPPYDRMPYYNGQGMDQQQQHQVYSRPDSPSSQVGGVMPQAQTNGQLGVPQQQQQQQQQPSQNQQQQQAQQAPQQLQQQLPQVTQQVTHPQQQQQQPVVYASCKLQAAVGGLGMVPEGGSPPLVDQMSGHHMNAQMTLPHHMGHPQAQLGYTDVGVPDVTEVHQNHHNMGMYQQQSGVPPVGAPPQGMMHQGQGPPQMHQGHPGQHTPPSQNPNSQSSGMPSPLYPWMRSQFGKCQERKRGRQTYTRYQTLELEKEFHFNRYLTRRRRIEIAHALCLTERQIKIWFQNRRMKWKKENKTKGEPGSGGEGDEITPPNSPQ
Sequence of Antp-hTBP heterodimer (VCAntp-VNTBP, Venus reconstituted by BiFC) (Drosophila | human) (P02833 whole entry, chain 1 of 2, the tested form may be a part): as the sequence (P02833 whole entry, the tested form may be a part) above
Sequence of Antp-hTBP heterodimer (VCAntp-VNTBP, Venus reconstituted by BiFC) (Drosophila | human) (P20226 whole entry, chain 2 of 2, further chain, the tested form may be a part): as the sequence (P20226 whole entry, the tested form may be a part) above

As to “Bric-a-brac interacting protein BIP2 (2–89) fused to ECFP (from UniProt Q9XZU7 2-89) (domain or fragment)”, the Antp transactivation on pGLH11 with co-expressed TBP and BIP2, percent of Antp alone (Fig. 5D) in assay [1] came to 74%.

As for “AntpΔN, Antp lacking the N-terminal region (amino acids 1-269), fused to the C-terminal fragment of Venus (from UniProt P02833 270-378) (domain or fragment)”, in assay [2], the percent of transfected cells showing BiFC came out at 47%.

The substance “Antennapedia (Antp), fused to the C-terminal fragment of Venus (from UniProt P02833 1-378) (natural protein)” showed a percent of transfected cells showing BiFC in assay [2] of 78%.

The record behind these values is paper PMC9150345.
